Experimental data taken from article PMC6767301, “Polyamines Disrupt the KaiABC Oscillator by Inducing Protein Denaturation” (Molecules, 2019).

Target: the molecule itself
Test: native gel or EMSA; 6% native PAGE of each Kai protein after 4 h of incubation at 30 °C with polyamines (putrescine, spermidine, spermine); 50 mM Tris-HCl pH 8.0, 150 mM NaCl, 5 mM ATP, 5 mM MgCl2, 0.01% Tween-20; total protein 1.0 mg/mL

B1: KaiA (natural protein, Synechococcus elongatus PCC 7942, UniProt Q79PF6 1-284, looked up)
chain: MLSQIAICIWVESTAILQDCQRALSADRYQLQVCESGEMLLEYAQTHRDQIDCLILVAANPSFRAVVQQLCFEGVVVPAIVVGDRDSEDPDEPAKEQLYHSAELHLGIHQLEQLPYQVDAALAEFLRLAPVETMADHIMLMGANHDPELSSQQRDLAQRLQERLGYLGVYYKRDPDRFLRNLPAYESQKLHQAMQTSYREIVLSYFSPNSNLNQSIDNFVNMAFFADVPVTKVVEIHMELMDEFAKKLRVEGRSEDILLDYRLTLIDVIAHLCEMYRRSIPRET
notes: KaiA, Synechococcus elongatus PCC 7942; A few vector residues may remain after PreScission cleavage (surmised); also called Kai proteins; clock proteins; source: E. coli, purified (GSH resin, GST removed by PreScission protease, size-exclusion chromatography)
**Q.** Does B1 bind?
**A.** Result: binds

B2: KaiB (natural protein, Synechococcus elongatus PCC 7942, UniProt Q79PF5 1-102, looked up)
chain: MSPRKTYILKLYVAGNTPNSVRALKTLKNILEVEFQGVYALKVIDVLKNPQLAEEDKILATPTLAKVLPLPVRRIIGDLSDREKVLIGLDLLYGELQDSDDF
notes: KaiB, Synechococcus elongatus PCC 7942; A few vector residues may remain after PreScission cleavage (surmised); also called Kai proteins; clock proteins; source: E. coli, purified (GSH resin, GST removed by PreScission protease, size-exclusion chromatography)
**Q.** Does B2 bind?
**A.** Result: binds

B3: KaiC (natural protein, Synechococcus elongatus PCC 7942, UniProt Q79PF4 1-519, looked up)
chain: MTSAEMTSPNNNSEHQAIAKMRTMIEGFDDISHGGLPIGRSTLVSGTSGTGKTLFSIQFLYNGIIEFDEPGVFVTFEETPQDIIKNARSFGWDLAKLVDEGKLFILDASPDPEGQEVVGGFDLSALIERINYAIQKYRARRVSIDSVTSVFQQYDASSVVRRELFRLVARLKQIGATTVMTTERIEEYGPIARYGVEEFVSDNVVILRNVLEGERRRRTLEILKLRGTSHMKGEYPFTITDHGINIFPLGAMRLTQRSSNVRVSSGVVRLDEMCGGGFFKDSIILATGATGTGKTLLVSRFVENACANKERAILFAYEESRAQLLRNAYSWGMDFEEMERQNLLKIVCAYPESAGLEDHLQIIKSEINDFKPARIAIDSLSALARGVSNNAFRQFVIGVTGYAKQEEITGLFTNTSDQFMGAHSITDSHISTITDTIILLQYVEIRGEMSRAINVFKMRGSWHDKAIREFMISDKGPDIKDSFRNFERIISGSPTRITVDEKSELSRIVRGVQEKGPES
notes: KaiC, Synechococcus elongatus PCC 7942; The sample is a mixture of phosphorylated and de-phosphorylated KaiC; A few vector residues may remain after PreScission cleavage (surmised); also called Kai proteins; clock proteins; source: E. coli, purified (GSH resin, GST removed by PreScission protease, size-exclusion chromatography)
**Q.** Does B3 bind?
**A.** Result: binds
